The source of these data is patent publication US20230242615A1.

For this assay, the target named is IL4Rα on TF1 cells (UniProt P24394). In words: cell-based or functional assay.

B1: Dupilumab (antibody, INN chains, looked up, V domains shown)
VH: EVQLVESGGGLEQPGGSLRLSCAGSGFTFRDYAMTWVRQAPGKGLEWVSSISGSGGNTYYADSVKGRFTISRDNSKNTLYLQMNSLRAEDTAVYYCAKDRLSITIRPRYYGLDVWGQGTTVTVSS
VL: DIVMTQSPLSLPVTPGEPASISCRSSQSLLYSIGYNYLDWYLQKSGQSPQLLIYLGSNRASGVPDRFSGSGSGTDFTLKISRVEAEDVGFYYCMQALQTPYTFGQGTKLEIKR
The molecule B1 came in with an IC50 (nM) Blocking IL4, TF-1 cell proliferation of 3.1 nM; an IC50 (nM) Blocking IL13, TF-1 cell proliferation of 20.5 nM; a Relative activity (blocking IL4, against Dupilumab) of 1 fold; a Relative activity (blocking IL13, against Dupilumab) of 1 fold.
